According to US20080293915A1 (published 2008):
Ends that are not written are not given here.

What follows are binders tested against T1, human GABAC receptor rho1 subunit expressed on stably transfected neuroblastoma cells (human, UniProt P24046 22-479) (assay: phage display panning (Ph.D-12 library): subtraction on non-transfected neuroblastoma cells, then three rounds on GABAC-transfected neuroblastoma cells; clones sequenced).
T1 construct: whole, on cells; the pentameric state on these cells was not measured; also called GABAC human ρ1; GABAC-transfected neuroblastoma cells
Excerpt: Screening of phage display peptides with GABAC-expressing cells MAY employ phage display to identify 12-mer peptide sequences that can serve as an NNP anchoring element. GABAC-transfected neuroblastoma cells have yielded sequences of peptides that preferentially bind to GABAC-expressing cells. For phage selection, we used a screening method similar to that previously used to identify phages that bind to ErbB receptors (Stortelers et al., 2003). Briefly, 2×10¹⁰ phages (Ph.D-12 library from New England Biolabs, MA) were incubated with control, non-transfected neuroblastoma cells in binding buffer (PBS containing 0.2% BSA, 0.05% Tween 20) for 2 hr. Non-bound phages were collected and then incubated with GABAC-transfected neuroblastoma cells for 2 hr. After rinsing several times with washing buffer (0.05% Tween 20 in PBS), bound phages were eluted using an acidic glycine buffer (50 mM glycine, 150 mM NaCl, pH 2.7) and neutralized with 1 M Tris, pH 8. After phage titration of the eluate, we performed a second and then a third round of bio-panning using the GABAC-transfected neuroblastoma cells. After the third round of panning, DNA isolated from individual phage plaques was sequenced. […] The 7 illustrated sequences represent individual phage clones from a total of 36 sequenced clones.

T1 sequence (P24046 22-479): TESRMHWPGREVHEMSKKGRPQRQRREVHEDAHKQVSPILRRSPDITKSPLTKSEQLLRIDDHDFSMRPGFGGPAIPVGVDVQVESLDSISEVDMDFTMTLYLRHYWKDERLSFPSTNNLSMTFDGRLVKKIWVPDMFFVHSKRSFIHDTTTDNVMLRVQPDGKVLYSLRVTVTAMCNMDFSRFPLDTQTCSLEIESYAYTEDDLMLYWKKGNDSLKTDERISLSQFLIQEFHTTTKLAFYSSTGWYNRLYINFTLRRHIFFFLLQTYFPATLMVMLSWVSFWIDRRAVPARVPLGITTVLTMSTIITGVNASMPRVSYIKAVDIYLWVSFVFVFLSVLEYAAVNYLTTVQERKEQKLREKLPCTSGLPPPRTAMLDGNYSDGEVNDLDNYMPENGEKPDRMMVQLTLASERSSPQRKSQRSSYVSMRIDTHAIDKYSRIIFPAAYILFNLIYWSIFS

Binder	binding result
HETAVRQTSPPM (not fully specified, no synthetic peptide was tested; also called Phage ID 20; Phage ID 22; not shown: protein III of bacteriophage M13 (Ph.D-12 library, New England Biolabs); any li) [Phage-displayed 12-mer peptide HETAVRQTSPPM (Group A; Phage ID 9, 20, 22)]	binds
HETACRQTSPPM (not fully specified, not shown: protein III of bacteriophage M13 (Ph.D-12 library, New England Biolabs); any li) [Phage-displayed 12-mer peptide HETACRQTSPPM (Group A; Phage ID 11)]	binds
HPYDSLHFPRMS (not fully specified, also called Phage ID 6-1; not shown: protein III of bacteriophage M13 (Ph.D-12 library, New England Biolabs); any li) [Phage-displayed 12-mer peptide HPYDSLHFPRMS (Group B; Phage ID 4, 6-1)]	binds
HPKQSLHFPDLS (not fully specified, not shown: protein III of bacteriophage M13 (Ph.D-12 library, New England Biolabs); any li) [Phage-displayed 12-mer peptide HPKQSLHFPDLS (Group B; Phage ID 6)]	binds
